Measurements from US20240029824A1 (University of Washington, published 2024).

B1: C3-DHT03-01 chain B (designed binder)
chain: NTHFIVVHGGEEARQLAETAVREISKKEGTEVRFEKKDGLLSIEVKNLSEELQRLIQELLQLLVRLAALLEAVRAVEEAIKRNPDNDEAVETAVRLARELKKVAELLQELAKKAGVPAILRGALLALEVAVRAVELAIKSNPDNDEAVETAVRLAVVKLALEIVQQLPDTELAREALELAKEAVKSTDSEALKVVYLALRIVQQLPDTELARLALELAKKAVEMTAQEVLEIARAALKAAQAFPNTELAELMLRLAEVAARVMKELERNDEEIKKSDELDDESLLEDIVELLKEIIKLWKILVEVSDVMLKLIS
notes: three copies in the A3B3C3 ring; also called C3-DHT03-01-DHR82 chain B
B2: C3-DHT03-02 chain B (designed binder)
chain: TWQWVLINISEEARQLIEKAVRAISKKEGTEVHFEKDDGVLHIRVKNLHEKRAREIHKVAKLILEVAAAERIVRERPGSNLAKKALEIILRAAEELAKADVDAALEAAVRAAEKVVREQPGSNLAKKALEIILRAAEELAKLPDPEALKEAVKAAEKVVREQPNSELAKKAREIIKRAAEELAKSPDKEAIQEAATALAILIELILSNTELAREAKELATEARKATDSEAAKVVFLALFIVVQLPDTELAKEALELAKEAVKSTDSEALKVVELALEIVQQLPDTELAKEALKLAKEAVKSTDSEALKVVYLALRIVQQLPDTELAREALELAKEAVKSTDSEQLEVVRLALEIVQLAPDTRLARAALKLAKEAVKSTDQEELKKVKAILRVASEVLKLEEEAKKSQEEVERLKQEVEKASKAGLDHEGDSRIFKKIHDVVTKQIKVILRLIAVYAELVAIIG
notes: three copies in the A3B3C3 ring
B3: C4-DHT03-01 chain B (designed binder)
chain: MGTTNFHLINGSEEARQLIQKAVEAISKKEGTEVHFEKSDGTLEIRVKNLHPRQEDLIKKFIEALLLALVAKGELEQAEKEGDAEVALRAVEKVVRVAELLLRLAKEAGSEEALKAALEIAEQAARLAARVFTLAVKQNDSDVAKRAVELIKRVAELLKRIAKESGSEEAKERAEKVEKAAEVAEIAARILDQLSNTELAKEALKLASEALKSDIKEALEVVRLALRIVQQLPDTELAREALELAKEAVKSTDSEQLEVVRLALEIVQLAPDTRLARAALKLAKEAVKSTDQEELKKVKAILRVASEVLKLEEEAKKSQEEVERLKQEVEKASKAGLDHEGDSRIFKKIHDVVTKQIKVILRLIAVYAELVAIIG
notes: four copies in the A4B4C4 ring; also called C4-DHT03-01-DHR82 chain B
B4: C4-DHT03-02 chain B (designed binder)
chain: MGTTNFHLINGSEEARQIIEKIVEEVARKAGTEVHFEKSDGTLEIRVKNLHEELERRIKKAIEAALAAQIAKKLAEQIERQLSNTELAKEAKKLATEAEKARDSEAVQVVLLALEIVQQLPDTELAKEALELAEEAVKSTDSEALKVVKLALEIVQQLPDTELAREALELAKEAVKSTDSEALKVVYLALRIVQQLPDTELARLALELAKKAVEMTAQEVLEIARAALKAAQAFPNTELAELMLRLAEVAARVMKELERNDEEIKKSDELDDESLLEDIVELLKEIIKLWKILVEVSDVMLKLIS
notes: four copies in the A4B4C4 ring

Assays:
[1] = target: T1, DHT03 chain C (SEQ ID NO: 59); assay: chains mixed and annealed, SEC, negative stain EM; A3B3C3 ring
T1 chain: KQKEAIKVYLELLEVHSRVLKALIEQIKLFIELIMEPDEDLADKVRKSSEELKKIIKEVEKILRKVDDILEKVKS

[2] = target: T2, DHT03_3arm_A21/B21/C82 chain C; assay: three components purified separately, mixed equimolar, heat annealed, SEC, negative stain EM
T2 construct: also called chain C DHR82 fusion; chain C of C3-DHT03-01-DHR82 and C4-DHT03-01-DHR82
T2 chain: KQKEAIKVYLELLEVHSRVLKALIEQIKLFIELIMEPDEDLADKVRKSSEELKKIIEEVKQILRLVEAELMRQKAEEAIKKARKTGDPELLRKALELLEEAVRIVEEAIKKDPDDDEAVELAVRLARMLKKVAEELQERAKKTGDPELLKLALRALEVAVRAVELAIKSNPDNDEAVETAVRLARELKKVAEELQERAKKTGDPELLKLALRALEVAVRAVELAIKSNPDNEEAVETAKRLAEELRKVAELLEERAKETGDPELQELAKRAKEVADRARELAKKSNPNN
Excerpt: As is evident from the images in FIGS. 4c and 4d, the cyclic structures retain one of the original heterotrimer helical hairpins in each corner; these short, outward facing protein chains provide fusion points for further elaboration of higher order symmetric assemblies. To evaluate the potential for building up larger nanostructures using the rings as hubs, and explore the modularity of the designed building blocks, we replaced the original outward facing chain C helical hairpin with the chain C DHR82 fusion (as it was the largest 4-repeat DHR) from FIG. 3d, row 8. This was done for two designs (C3-DHT03-01 and C4-DHT03-01), with chain C replaced by fusion C82 through expressing and purifying the three components separately, mixing them in equal molar quantities, and reconstituting using heat annealing.
An AKTA PURE FPLC system was used. Heterotrimer bases, arm extensions, coiled coil C2 rings, and all constructs mentioned in SI were passed through a Cytvia Superdex S200 Increase 10/300 GL column, while C3/C4 rings made from DHT03 were passed through a Cytvia Superdex S6 Increase 10/300 GL column. The mobile phase was TBS (25 mM Tris-HCl pH 8.0, 100 mM NaCl or 25 mM Tris-HCl pH 8.0, 150 mM NaCl). Samples ran at a flow rate of 0.75 ml/min and fractions were collected at 0.5 ml.

[3] = target: T1, DHT03 chain C (SEQ ID NO: 59); assay: chains mixed and annealed, SEC, negative stain EM; A4B4C4 ring

| Binder | binding result [1] | binding result [2] | binding result [3] |
| --- | --- | --- | --- |
| B1 | binds | binds |  |
| B2 | binds |  |  |
| B3 |  | binds | binds |
| B4 |  |  | binds |
